Laboratory results from article PMC13185593.

Tested on: HuR
Experiment: SPR
Details: SPR: 25 mM Tris pH 7.5, 100 mM KCl, 7 mM b-mercaptoethanol, 10% glycerol, 25 C, UV crosslinking: 5 mM HEPES pH 7.6, 25 mM KCl, 2 mM MgCl2, 3.8% glycerol

Substance	Kd [nM]
SARS-CoV-2 5'-UTR C241U, biotin (SPR)	339
SARS-CoV-2 5'-UTR G210U+C241U, biotin (SPR)	72.9
